Assay results as given in the supplement of paper PMC10567573.

B1: RAB40B (parent)
chain: YSLTTSSTHKRSSLRKVKLVRPPQ

Variants of: B1
Assay: protein stability index of a GFP-peptide fusion (GPS, HEK-293T) (PSI 1-6); higher = more stable
Conditions: c terminus: a fixed tail appended
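Note: lentivirally expressed fusions sorted by FACS into six bins by GFP to DsRed ratio, PSI derived from sequencing read proportions per bin multiplied by bin number.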

Protein stability index of substitutions, site by site:
S2: V 2.38 | P 2.74 | Q 2.74 | R 3.56 | N 2.96 | Y 1.93 | W 1.64 | T 2.81
H9: Q 3.62 | F 2.91 | G 3.23 | L 3.26 | I 2.61 | V 2.65 | W 1.82 | K 3.29 | C 2.72 | M 2.52 | S 3.42 | T 3.32 | E 2.72 | D 3.22 | A 2.75 | N 3.11 | Y 2.38 | P 3.08 | R 3.29
S7: W 2.24 | T 2.81 | I 2.6 | R 2.62 | C 2.92 | K 3.11 | M 2.42 | E 3.34 | F 2.27 | Y 2.35 | V 2.7 | P 3.47 | G 3.23 | H 3.07 | N 2.98 | Q 2.9 | D 2.94 | A 2.84 | L 2.81
S12: V 2.57 | I 2.36 | P 3.15 | F 2.17 | G 3.36 | L 2.33 | C 2.41 | T 3.07 | D 3.71 | K 3.83 | H 3.16 | E 3.07 | Q 3.71 | W 2.23 | M 2.63 | Y 2.85 | R 3.32 | A 2.97 | N 3.16
R15: P 3.47 | G 2.97 | E 3.25 | S 2.95 | V 2.48 | H 2.51 | F 1.94 | W 2.12 | L 2.44 | I 2.13 | K 3.24 | Q 3.35 | D 3.54 | M 2.46 | A 2.49 | C 2.81 | Y 1.86 | N 2.94 | T 3.02
L3: T 3.08 | A 3.88 | W 2.02 | N 3.3 | Q 3.31 | H 3.06 | M 2.97 | P 2.96 | S 3.13 | D 3.7 | C 3 | E 3.94 | R 3.34 | Y 2.24 | K 3.43 | V 3.17 | F 2.57 | G 3.18 | I 2.88
T4: L 3.26 | P 3.16 | F 1.77 | I 2.53 | H 2.81 | M 2.55 | S 3.38 | G 3.33 | N 3.31 | E 3.52 | D 3.85 | Y 2.17 | W 1.35 | A 3.06 | K 3.33 | R 3.33 | C 2.48 | Q 3.82 | V 2.7
K18: Y 2.05 | W 2.32 | Q 3.09 | D 3.81 | L 2.49 | A 3.2 | F 2.54 | N 2.98 | V 2.68 | R 2.38 | H 3.71 | T 2.81 | C 2.63 | I 2.34 | P 3.47 | M 2.22 | E 3.43 | S 3.06 | G 2.81
L14: K 3.37 | Q 3.98 | N 3.77 | R 3.69 | A 3.68 | P 3.86 | C 2.6 | V 3.25 | H 3.46 | M 2.64 | E 3.82 | W 2.38 | T 3.87 | S 3.5 | F 2.62 | D 3.83 | I 3.37 | Y 3.06 | G 3.79
V17: C 2.91 | Q 3.38 | R 4.01 | T 3.09 | A 3.28 | G 3.12 | I 2.63
